Target: Streptavidin (on Sepharose beads) (UniProt P22629 25-183)
Assay: bead binding, flow cytometry and fluorescence microscopy; SA3 released from AP by lambda exo, no ALP; 70 mM Tris-HCl, 10 mM MgCl2, pH 8.0; 200 nM AP in 100 uL, 3 uL SA beads, 5 min at room temperature after enzyme steps at 37 C and 75 C inactivation
Settings: protein: commercial; tags: immobilized on Sepharose beads; chain copies: 4; label: 5'-FAM; hairpin with bulge

Chain of Streptavidin (on Sepharose beads) (P22629 25-183): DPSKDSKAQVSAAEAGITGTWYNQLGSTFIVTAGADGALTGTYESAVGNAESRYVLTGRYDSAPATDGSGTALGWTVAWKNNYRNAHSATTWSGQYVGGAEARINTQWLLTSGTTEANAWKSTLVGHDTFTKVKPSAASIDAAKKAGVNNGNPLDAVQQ

ATTGACGCGTGTGACGCAACACTCAAT (structured_DNA) [SA3]
binding result: binds

From PMC6299030, “An Allosteric-Probe for Detection of Alkaline Phosphatase Activity and Its Application in Immunoassay”
